T1: ASK1 (Homo sapiens, UniProt Q99683)
T1 construct: wild type ASK1 (ASK1-WT, aa 1-1375); expressed in transfected cells; host or cells: BAEC
T1 sequence (Q99683 1-1374): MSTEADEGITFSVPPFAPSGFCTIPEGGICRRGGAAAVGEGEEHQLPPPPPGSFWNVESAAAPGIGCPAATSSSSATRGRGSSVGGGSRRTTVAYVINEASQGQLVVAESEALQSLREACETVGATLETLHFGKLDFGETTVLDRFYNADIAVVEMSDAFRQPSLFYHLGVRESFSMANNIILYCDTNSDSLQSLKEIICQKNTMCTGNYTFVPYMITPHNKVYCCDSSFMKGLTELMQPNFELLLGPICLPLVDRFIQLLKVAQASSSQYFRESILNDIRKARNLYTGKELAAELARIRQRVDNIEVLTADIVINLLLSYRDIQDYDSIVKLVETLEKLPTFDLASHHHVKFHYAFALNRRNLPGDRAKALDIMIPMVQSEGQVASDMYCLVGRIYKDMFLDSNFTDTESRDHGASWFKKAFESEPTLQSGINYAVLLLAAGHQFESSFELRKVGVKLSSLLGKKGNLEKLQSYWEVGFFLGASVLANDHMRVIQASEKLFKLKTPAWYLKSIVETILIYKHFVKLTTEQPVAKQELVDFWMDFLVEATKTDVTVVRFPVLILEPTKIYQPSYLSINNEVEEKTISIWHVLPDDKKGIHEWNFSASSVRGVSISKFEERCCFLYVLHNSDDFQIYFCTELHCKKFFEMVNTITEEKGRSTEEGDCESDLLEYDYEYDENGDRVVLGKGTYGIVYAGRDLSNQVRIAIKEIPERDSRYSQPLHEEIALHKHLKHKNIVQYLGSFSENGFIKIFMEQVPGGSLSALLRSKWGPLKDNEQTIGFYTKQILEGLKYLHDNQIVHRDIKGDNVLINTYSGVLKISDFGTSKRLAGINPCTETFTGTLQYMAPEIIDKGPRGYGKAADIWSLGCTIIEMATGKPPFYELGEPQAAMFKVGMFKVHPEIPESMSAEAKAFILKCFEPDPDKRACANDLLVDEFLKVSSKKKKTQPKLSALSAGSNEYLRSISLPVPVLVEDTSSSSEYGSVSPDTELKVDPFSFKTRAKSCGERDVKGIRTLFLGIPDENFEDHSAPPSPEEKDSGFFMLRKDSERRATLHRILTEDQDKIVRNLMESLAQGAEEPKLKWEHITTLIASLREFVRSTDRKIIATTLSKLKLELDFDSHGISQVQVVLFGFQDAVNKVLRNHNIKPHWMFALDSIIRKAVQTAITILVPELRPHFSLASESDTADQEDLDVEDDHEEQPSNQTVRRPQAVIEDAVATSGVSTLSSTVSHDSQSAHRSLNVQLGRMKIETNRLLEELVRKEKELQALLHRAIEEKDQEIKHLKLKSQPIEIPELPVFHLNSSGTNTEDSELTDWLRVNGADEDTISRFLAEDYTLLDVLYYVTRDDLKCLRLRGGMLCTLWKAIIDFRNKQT


Legend:
ASK1 [1] = assay: Trx-induced ASK1 ubiquitination and degradation in transfected BAEC (Western blot, IP/anti-Ub); type: cell-based, Bovine; details: for ASK1 poly-ubiquitination / endogenous ASK1 protein level: BAEC transfected with Trx construct vs control vector; for endogenous ASK1 protein level: Western blot anti-ASK1
Protocol: Transfection Transfection of EC was performed by Lipofectamine2000 according to manufacturer's protocol (Gibco). Cells were cultured at 90% confluence in 6-well plates and were transfected with total 4 μg plasmid constructs as indicated. Cells were harvested at 36-48 h post-transfection and cell lysates were used for protein assays.
Immunoprecipitation and immunoblotting EC after various treatments were washed twice with cold PBS and lysed in 1.5 ml of cold lysis buffer (50 mM Tris-HC, pH 7.6, 150 mM NaCl, 0.1% Triton X-100, 0.75% Brij 96, 10 μg/ml aprotinin, 10 μg/ml leupeptin, 2 mM PMSF, 1 mM EDTA) for 20 min on ice. Protein concentrations were determined with a Bio-Rad kit. For immunoprecipitation to analyze protein interaction in vivo, 400 μg of cell lysate supematant were incubated with 5 μg of the first protein-specific antiserum (e.g. anti-Trx from Medical & Biological Laboratory) for 2 h with 50 μl of GammaBind plus Sepharose. Immune complexes were collected after each immunoprecipitation by centrifugation at 14,000× g for 10 min followed by 4 washes with lysis buffer. The immune complexes were subjected to Western blot with the second protein (e.g., ASK1)-specific antibody (Santa Cruz Biotech, Santa Cruz, Calif.). The chemiluminescence was detected using an ECL kit according to the instructions of the manufacturer (Amersham Life Science, Arlington Heights, Ill.). For Flag-tagged and HA-tagged proteins, anti-Flag M2 antibody (Sigma) and anti-HA antibody (Roche Diagnostics) were used, respectively.
Trx induces ASK1 ubiquitination and degradation in EC. To determine if Trx affects ASK1 protein stability, BAEC were transfected with Trx-expressing plasmid or a control vector (VC) with Lipofactamine2000. Transfection efficiency was determined by transfection of a GFP construct under a fluorescence microscope and usually reached 90% in BAEC and 10% in HUVEC. The high transfection efficiency in BAEC allowed us to examine effects of transgene on endogenous ASK1. Endogenous ASK1 was determined by Western blot with anti-ASK1. […] The high molecular bands are usually ubiquitination of target proteins for degradation (Laney J D et al. Substrate targeting in the ubiquitin system. Cell 97:427-30 (1999)). […] The ubiquitination of ASK1 was also confirmed by co-expression of ASK1 and HA-tag Ub (Treier et al. Ubiquitin-dependent c-Jun degradation in vivo is mediated by the delta domain. Cell 78:787-98 (1994)).

ASK1 [2] = molecular target: T1, ASK1; assay: GST-Trx pull-down assay; type: binding; details: for ASK1 bound to GST-Trx: in the presence of 1 mM DTT; for association of GST-Trx with ASK1: in the presence of 1 mM H2O2
Protocol: GST-Trx pull-down assay: GST fusion protein preparation and GST pull-down assay were performed as described previously. […] Briefly, GST-Trx fusion proteins expressed in Escherichia coli XL-1 blue were affinity purified on glutathione-Sepharose beads (Pharmacia). 400 μg of cell lysates expressing HA-tagged ASK1 were incubated with 10 μg of GST-Trx bound to glutathione-Sepharose in the lysis buffer containing either 1 mM DTT or 1 mM H2O2. The beads were washed 4 times with the lysis buffer before the addition of boiling Laemmli sample buffer. Bound ASK1 proteins were resolved on SDS-PAGE and detected by Western blot with anti-HA.
Hydrogen peroxide dissociates wild type Trx but not Trx-C32S or Trx-C35S from ASK1 in vitro. Association of ASK1 with various Trx proteins - Trx-WT, Trx-CS, Trx-C32S or Trx-C35S in the presence of 1 mM DTT or H202 in an in vitro GST pull-down assay. Bacteria-expressed GST-Trx proteins were purified and protein concentrations were determined by SDS-PAGE (FIG. 2A). […] ASK1 bound to GST-Trx was determined by Western blot with anti-HA.

ASK1 bound to GST-Trx (ASK1 [2]) | association of GST-Trx with ASK1 (ASK1 [2]) | Molecule | ubiquitination and degradation of ASK1-ΔN (ASK1 [1]; BAEC co-transfected with ASK1-ΔN (lacks N-terminal Trx-binding domain)) | ASK1 poly-ubiquitination (ASK1 [1]) | endogenous ASK1 protein level (ASK1 [1]) | endogenous ASK1 protein level (ASK1 [1]; listed as Trx) | ASK1 poly-ubiquitination (ASK1 [1]; listed as Trx)
bound | disrupted the association | thioredoxin (protein, Flag tag or GST fusion, Flag-tagged or GST fusion) MVKQIESKTAFQEALDAAGDKLVVVDFSATWCGPCKMIKPFFHSLSEKYSNVIFLEVDVDDCQDVASECEVKCMPTFQFFKKGQKVGEFSGANKEKLEATINELV | did not induce ubiquitination and degradation | increased ASK1 poly-ubiquitination | decrease in ASK1 protein | decreased protein level of ASK1 | significantly increased ASK1 ubiquitination
bound | retained their associations with ASK1 | Trx-C32S: C32S single mutant of Trx at the catalytic site, SEQ ID NO:2 (protein) MVKQIESKTAFQEALDAAGDKLVVVDFSATWSGPCKMIKPFFHSLSEKYSNVIFLEVDVDDCQDVASECEVKCMPTFQFFKKGQKVGEFSGANKEKLEATINELV |  | increased ASK1 poly-ubiquitination | decrease in ASK1 protein |  | 
bound | retained their associations with ASK1 | Trx-C35S: C35S single mutant of Trx at the catalytic site, SEQ ID NO:3 (protein) MVKQIESKTAFQEALDAAGDKLVVVDFSATWCGPSKMIKPFFHSLSEKYSNVIFLEVDVDDCQDVASECEVKCMPTFQFFKKGQKVGEFSGANKEKLEATINELV |  | increased ASK1 poly-ubiquitination | decrease in ASK1 protein |  | 

— patent US20060148057A1, “Thioredoxin mutants and uses thereof” (priority 2002, published 2006)
